Experimental data reported in US20110118131A1 (published 2011).

molecular target: T1, Ep-CAM (UniProt P16422 24-265, limits assumed); test: Biacore, Fab periplasmic extract on immobilised Epcam
T1 sequence (looked up): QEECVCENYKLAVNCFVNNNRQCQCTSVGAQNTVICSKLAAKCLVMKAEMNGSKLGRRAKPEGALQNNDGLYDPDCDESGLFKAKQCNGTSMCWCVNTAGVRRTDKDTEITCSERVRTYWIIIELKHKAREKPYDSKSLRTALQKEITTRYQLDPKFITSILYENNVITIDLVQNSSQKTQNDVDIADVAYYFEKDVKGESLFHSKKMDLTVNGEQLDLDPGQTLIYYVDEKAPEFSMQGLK

Binder	fold difference in affinity vs original	binding result
ING-1 Fab, heavy chain Y32I (Fab, V domains shown, Fab in periplasmic extract) VH: QIQLVQSGPELKKPGETVKISCKASGYTFTKIGMNWVKQAPGKGLKWMGWINTYTEEPTYGDDFKGRFAFSLETSASTANLQINNLKSEDTATYFCARFGSAVDYWGQGTSVTVSS VL: DIVMTQAAFSNPVTLGTSGSISCRSSKSLLHSNGITYLYWYLQKPGQSPQLLIYQMSNLASGVPDRFSSSGSGTDFTLRISRVEAEDVGVYYCAQNLELPRTFGGGTKLEMKR	0.03 fold	
ING-1 Fab, heavy chain Y105P (Fab, V domains shown, Fab in periplasmic extract) VH: QIQLVQSGPELKKPGETVKISCKASGYTFTKYGMNWVKQAPGKGLKWMGWINTYTEEPTYGDDFKGRFAFSLETSASTANLQINNLKSEDTATYFCARFGSAVDPWGQGTSVTVSS VL: DIVMTQAAFSNPVTLGTSGSISCRSSKSLLHSNGITYLYWYLQKPGQSPQLLIYQMSNLASGVPDRFSSSGSGTDFTLRISRVEAEDVGVYYCAQNLELPRTFGGGTKLEMKR		no binding
ING-1 Fab, heavy chain Y32G (Fab, V domains shown, Fab in periplasmic extract) VH: QIQLVQSGPELKKPGETVKISCKASGYTFTKGGMNWVKQAPGKGLKWMGWINTYTEEPTYGDDFKGRFAFSLETSASTANLQINNLKSEDTATYFCARFGSAVDYWGQGTSVTVSS VL: DIVMTQAAFSNPVTLGTSGSISCRSSKSLLHSNGITYLYWYLQKPGQSPQLLIYQMSNLASGVPDRFSSSGSGTDFTLRISRVEAEDVGVYYCAQNLELPRTFGGGTKLEMKR	0.02 fold	
ING-1 Fab, heavy chain W50V (Fab, V domains shown, Fab in periplasmic extract) VH: QIQLVQSGPELKKPGETVKISCKASGYTFTKYGMNWVKQAPGKGLKWMGVINTYTEEPTYGDDFKGRFAFSLETSASTANLQINNLKSEDTATYFCARFGSAVDYWGQGTSVTVSS VL: DIVMTQAAFSNPVTLGTSGSISCRSSKSLLHSNGITYLYWYLQKPGQSPQLLIYQMSNLASGVPDRFSSSGSGTDFTLRISRVEAEDVGVYYCAQNLELPRTFGGGTKLEMKR	0.02 fold	

The remaining lines, values ahead:

fold difference in affinity vs original	binding result	Binder
0.05 fold		ING-1 Fab, heavy chain Y32L (Fab, V domains shown, Fab in periplasmic extract) VH: QIQLVQSGPELKKPGETVKISCKASGYTFTKLGMNWVKQAPGKGLKWMGWINTYTEEPTYGDDFKGRFAFSLETSASTANLQINNLKSEDTATYFCARFGSAVDYWGQGTSVTVSS VL: DIVMTQAAFSNPVTLGTSGSISCRSSKSLLHSNGITYLYWYLQKPGQSPQLLIYQMSNLASGVPDRFSSSGSGTDFTLRISRVEAEDVGVYYCAQNLELPRTFGGGTKLEMKR
0.08 fold		ING-1 Fab, heavy chain Y105A (Fab, V domains shown, Fab in periplasmic extract) VH: QIQLVQSGPELKKPGETVKISCKASGYTFTKYGMNWVKQAPGKGLKWMGWINTYTEEPTYGDDFKGRFAFSLETSASTANLQINNLKSEDTATYFCARFGSAVDAWGQGTSVTVSS VL: DIVMTQAAFSNPVTLGTSGSISCRSSKSLLHSNGITYLYWYLQKPGQSPQLLIYQMSNLASGVPDRFSSSGSGTDFTLRISRVEAEDVGVYYCAQNLELPRTFGGGTKLEMKR
0.01 fold		ING-1 Fab, heavy chain Y32A (Fab, V domains shown, Fab in periplasmic extract) VH: QIQLVQSGPELKKPGETVKISCKASGYTFTKAGMNWVKQAPGKGLKWMGWINTYTEEPTYGDDFKGRFAFSLETSASTANLQINNLKSEDTATYFCARFGSAVDYWGQGTSVTVSS VL: DIVMTQAAFSNPVTLGTSGSISCRSSKSLLHSNGITYLYWYLQKPGQSPQLLIYQMSNLASGVPDRFSSSGSGTDFTLRISRVEAEDVGVYYCAQNLELPRTFGGGTKLEMKR
0.01 fold		ING-1 Fab, heavy chain Y32P (Fab, V domains shown, Fab in periplasmic extract) VH: QIQLVQSGPELKKPGETVKISCKASGYTFTKPGMNWVKQAPGKGLKWMGWINTYTEEPTYGDDFKGRFAFSLETSASTANLQINNLKSEDTATYFCARFGSAVDYWGQGTSVTVSS VL: DIVMTQAAFSNPVTLGTSGSISCRSSKSLLHSNGITYLYWYLQKPGQSPQLLIYQMSNLASGVPDRFSSSGSGTDFTLRISRVEAEDVGVYYCAQNLELPRTFGGGTKLEMKR
	no binding	ING-1 Fab, heavy chain Y105G (Fab, V domains shown, Fab in periplasmic extract) VH: QIQLVQSGPELKKPGETVKISCKASGYTFTKYGMNWVKQAPGKGLKWMGWINTYTEEPTYGDDFKGRFAFSLETSASTANLQINNLKSEDTATYFCARFGSAVDGWGQGTSVTVSS VL: DIVMTQAAFSNPVTLGTSGSISCRSSKSLLHSNGITYLYWYLQKPGQSPQLLIYQMSNLASGVPDRFSSSGSGTDFTLRISRVEAEDVGVYYCAQNLELPRTFGGGTKLEMKR

molecular target: T2, Ep-CAM (UniProt P16422 24-265, limits assumed); test: Biacore, Fab periplasmic extract
T2 construct: Immobilised on the Biacore chip; construct not described
T2 sequence (looked up): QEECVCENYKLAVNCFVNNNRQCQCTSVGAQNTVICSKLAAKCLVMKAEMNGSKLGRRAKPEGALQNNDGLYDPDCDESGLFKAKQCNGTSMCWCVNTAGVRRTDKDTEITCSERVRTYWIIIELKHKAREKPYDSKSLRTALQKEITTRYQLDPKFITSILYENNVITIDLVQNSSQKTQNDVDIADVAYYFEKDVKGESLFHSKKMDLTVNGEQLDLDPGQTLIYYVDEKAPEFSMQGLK

Binder	binding result	fold difference in affinity vs original ING-1
ING-1 Fab, light chain E98P (Fab, V domains shown, Fab in periplasmic extract) VH: QIQLVQSGPELKKPGETVKISCKASGYTFTKYGMNWVKQAPGKGLKWMGWINTYTEEPTYGDDFKGRFAFSLETSASTANLQINNLKSEDTATYFCARFGSAVDYWGQGTSVTVSS VL: DIVMTQAAFSNPVTLGTSGSISCRSSKSLLHSNGITYLYWYLQKPGQSPQLLIYQMSNLASGVPDRFSSSGSGTDFTLRISRVEAEDVGVYYCAQNLPLPRTFGGGTKLEMKR	no binding	
ING-1 Fab, light chain L99T (Fab, V domains shown, Fab in periplasmic extract) VH: QIQLVQSGPELKKPGETVKISCKASGYTFTKYGMNWVKQAPGKGLKWMGWINTYTEEPTYGDDFKGRFAFSLETSASTANLQINNLKSEDTATYFCARFGSAVDYWGQGTSVTVSS VL: DIVMTQAAFSNPVTLGTSGSISCRSSKSLLHSNGITYLYWYLQKPGQSPQLLIYQMSNLASGVPDRFSSSGSGTDFTLRISRVEAEDVGVYYCAQNLETPRTFGGGTKLEMKR		0.09 fold
ING-1 Fab, light chain I35L (Fab, V domains shown, Fab in periplasmic extract) VH: QIQLVQSGPELKKPGETVKISCKASGYTFTKYGMNWVKQAPGKGLKWMGWINTYTEEPTYGDDFKGRFAFSLETSASTANLQINNLKSEDTATYFCARFGSAVDYWGQGTSVTVSS VL: DIVMTQAAFSNPVTLGTSGSISCRSSKSLLHSNGLTYLYWYLQKPGQSPQLLIYQMSNLASGVPDRFSSSGSGTDFTLRISRVEAEDVGVYYCAQNLELPRTFGGGTKLEMKR		0.6 fold
ING-1 Fab, light chain I35P (Fab, V domains shown, Fab in periplasmic extract) VH: QIQLVQSGPELKKPGETVKISCKASGYTFTKYGMNWVKQAPGKGLKWMGWINTYTEEPTYGDDFKGRFAFSLETSASTANLQINNLKSEDTATYFCARFGSAVDYWGQGTSVTVSS VL: DIVMTQAAFSNPVTLGTSGSISCRSSKSLLHSNGPTYLYWYLQKPGQSPQLLIYQMSNLASGVPDRFSSSGSGTDFTLRISRVEAEDVGVYYCAQNLELPRTFGGGTKLEMKR		0.7 fold
ING-1 Fab, light chain K27T (Fab, V domains shown, Fab in periplasmic extract) VH: QIQLVQSGPELKKPGETVKISCKASGYTFTKYGMNWVKQAPGKGLKWMGWINTYTEEPTYGDDFKGRFAFSLETSASTANLQINNLKSEDTATYFCARFGSAVDYWGQGTSVTVSS VL: DIVMTQAAFSNPVTLGTSGSISCRSSTSLLHSNGITYLYWYLQKPGQSPQLLIYQMSNLASGVPDRFSSSGSGTDFTLRISRVEAEDVGVYYCAQNLELPRTFGGGTKLEMKR	no binding	
ING-1 Fab, light chain L29P (Fab, V domains shown, Fab in periplasmic extract) VH: QIQLVQSGPELKKPGETVKISCKASGYTFTKYGMNWVKQAPGKGLKWMGWINTYTEEPTYGDDFKGRFAFSLETSASTANLQINNLKSEDTATYFCARFGSAVDYWGQGTSVTVSS VL: DIVMTQAAFSNPVTLGTSGSISCRSSKSPLHSNGITYLYWYLQKPGQSPQLLIYQMSNLASGVPDRFSSSGSGTDFTLRISRVEAEDVGVYYCAQNLELPRTFGGGTKLEMKR	no binding	
ING-1 Fab, light chain L99P (Fab, V domains shown, Fab in periplasmic extract) VH: QIQLVQSGPELKKPGETVKISCKASGYTFTKYGMNWVKQAPGKGLKWMGWINTYTEEPTYGDDFKGRFAFSLETSASTANLQINNLKSEDTATYFCARFGSAVDYWGQGTSVTVSS VL: DIVMTQAAFSNPVTLGTSGSISCRSSKSLLHSNGITYLYWYLQKPGQSPQLLIYQMSNLASGVPDRFSSSGSGTDFTLRISRVEAEDVGVYYCAQNLEPPRTFGGGTKLEMKR		0.01 fold
ING-1 Fab, light chain L99G (Fab, V domains shown, Fab in periplasmic extract) VH: QIQLVQSGPELKKPGETVKISCKASGYTFTKYGMNWVKQAPGKGLKWMGWINTYTEEPTYGDDFKGRFAFSLETSASTANLQINNLKSEDTATYFCARFGSAVDYWGQGTSVTVSS VL: DIVMTQAAFSNPVTLGTSGSISCRSSKSLLHSNGITYLYWYLQKPGQSPQLLIYQMSNLASGVPDRFSSSGSGTDFTLRISRVEAEDVGVYYCAQNLEGPRTFGGGTKLEMKR		0.02 fold

The next lines start with the values.

binding result	fold difference in affinity vs original ING-1	Binder
no binding		ING-1 Fab, light chain L97G (Fab, V domains shown, Fab in periplasmic extract) VH: QIQLVQSGPELKKPGETVKISCKASGYTFTKYGMNWVKQAPGKGLKWMGWINTYTEEPTYGDDFKGRFAFSLETSASTANLQINNLKSEDTATYFCARFGSAVDYWGQGTSVTVSS VL: DIVMTQAAFSNPVTLGTSGSISCRSSKSLLHSNGITYLYWYLQKPGQSPQLLIYQMSNLASGVPDRFSSSGSGTDFTLRISRVEAEDVGVYYCAQNGELPRTFGGGTKLEMKR
	0.5 fold	ING-1 Fab, light chain L97A (Fab, V domains shown, Fab in periplasmic extract) VH: QIQLVQSGPELKKPGETVKISCKASGYTFTKYGMNWVKQAPGKGLKWMGWINTYTEEPTYGDDFKGRFAFSLETSASTANLQINNLKSEDTATYFCARFGSAVDYWGQGTSVTVSS VL: DIVMTQAAFSNPVTLGTSGSISCRSSKSLLHSNGITYLYWYLQKPGQSPQLLIYQMSNLASGVPDRFSSSGSGTDFTLRISRVEAEDVGVYYCAQNAELPRTFGGGTKLEMKR
no binding		ING-1 Fab, light chain L29I (Fab, V domains shown, Fab in periplasmic extract) VH: QIQLVQSGPELKKPGETVKISCKASGYTFTKYGMNWVKQAPGKGLKWMGWINTYTEEPTYGDDFKGRFAFSLETSASTANLQINNLKSEDTATYFCARFGSAVDYWGQGTSVTVSS VL: DIVMTQAAFSNPVTLGTSGSISCRSSKSILHSNGITYLYWYLQKPGQSPQLLIYQMSNLASGVPDRFSSSGSGTDFTLRISRVEAEDVGVYYCAQNLELPRTFGGGTKLEMKR
